{"source": "patent US8598315B2", "about": "“Protein transduction domains derived from secretory leukocyte protease inhibitor” (Research Foundation of City University of New York, priority 2007, dated 2013)", "key": {"[1]": {"system": "retinal ganglion cell layer of the retina", "experiment": "SLPI-derived PTD injected into adult eye (Example 8, expected result)", "settings": "adult rats, injected into the eyes, 4 hours", "quoted_text": "To analyze the transduction characteristics of SLPI11-25 in vivo, fSLPI11-25 is injected into the eyes of adult rats."}, "[2]": {"system": "retinal ganglion cell layer of the retina", "experiment": "Internalization in vivo after injection into the vitreous chamber of the eye", "settings": "adult rats, 5 μl of 1 μg/μl into vitreous chamber, 4 hours", "quoted_text": "To analyze the transduction characteristics of SLPI in vivo, fSLPI was injected into the eyes of adult rats. Long-Evans rats (200-250 g) were anesthetized with 2.5% isofluorane and 5 μl of fSLPI (1 μg/μl) or unconjugated fluorescein was injected into the vitreous chamber of the right eye using a glass micropipette (1 μm diameter) attached to a microsyringe pump. 4 hours later, the animals were sacrificed by transcardial perfusion with 4% paraformaldehyde. Following removal of the cornea and lens, the eyes were dissected out and post-fixed in 4% paraformaldehyde for 48 hours. Tissues were then cryoprotected in 30% sucrose in phosphate-buffered saline (PBS) for an additional 48 hours. Tissues were sectioned sagitally at 30 μm on a cryostat and thaw-mounted onto gelatin-coated slides."}, "DRG neurons [3]": {"system": "DRG neurons", "experiment": "Internalization of fluorescein-labeled SLPI/peptides by DRG neurons at 37° C. (fluorescence microscopy)", "type": "cell-based", "settings": "for internalization / presence in nuclei of DRG neurons: P6 DRG neurons, 5 μg/ml, 15 minutes", "experimental": "To visualize internalization of SLPI in living cells, SLPI was labeled with fluorescein using a Fluorescein-EX protein labeling kit (Molecular Probes). The labeling reaction was performed following the protocol provided by the manufacturer. P5 DRG neurons were isolated (Mukhopadhyay et al., 1994; DeBellard et al., 1996; Cai et al., 1999; supra) and treated with either 10 μg/ml of fluorescein-labeled SLPI (fSLPI) or unconjugated fluorescein in SATO culture medium. Cells were then plated in 8 well chamber slides coated with 100 μg/ml poly-D-lysine (PDL) and incubated for 1 hour at 37° C. Cells were then fixed with 4% paraformaldehyde and immunostained using a monoclonal antibody to the neuronal marker βIII tubulin (1:1000 dilution, Covance). After an overnight incubation at 4° C., the cells were rinse and incubated successively with biotinylated anti-mouse antibody (1:500 dilution, Amersham) and Texas Red-conjugated streptavidin (1:300 dilution, Amersham). Slides were then coverslipped and viewed using an upright fluorescence microscope.\nTo further characterize SLPI internalization into living cells, P5 DRG neurons in SATO culture medium were treated with unconjugated fluorescein, 1 μg/ml fSLPI, or 10 μg/ml fSLPI and plated onto PDL-coated slides for 5 minutes at 37° C. Cells were then fixed and immunostained for βIII tubulin as described.\nThe transduction characteristics of a SLPI-derived PTD comprising amino acids 11-25 of human SLPI (SLPI11-25) were compared to those of the SLPI protein. SLPI11-25 and penetratin were custom synthesized and labeled with fluorescein at the C-terminus by Invitrogen. P6 DRG neurons were isolated and treated with unconjugated fluorescein, 5 μg/ml fSLPI, 5 μg/ml SLPI11-25, or 5 μg/ml penetratin in SATO culture medium. Cells were plated onto PDL-coated slides and incubated for 15 minutes at 37° C. Cells were then fixed and immunostained for βIII tubulin as described."}, "DRG neurons [4]": {"system": "DRG neurons", "experiment": "Internalization at 4° C. by DRG neurons plated on CHO cell monolayers", "type": "cell-based", "settings": "P6 DRG neurons, 10 μg/ml, 4 hours", "experimental": "(§1) For these experiments, monolayers of Chinese hamster ovary (CHO) cells were prepared by plating 75,000 cells into the wells of 8-well chamber slides coated with 20 μg/ml PDL and 10 μg/ml fibronectin (Mukhopadhyay et al., 1994, supra). These cells were incubated overnight at 37° C. to allow the monolayers to form. P6 DRG neurons were then isolated, plated on the monolayers in SATO culture medium, and incubated for an additional 16 hours. This approach was used because of the harsh conditions used in these experiments. Neurons would likely fail to adhere to the slides if plated directly onto PDL and incubated at 4° C., and so, we enhanced adhesion by plating the neurons on CHO cell monolayers and allowing them to extend neurites. Cold SATO culture medium was supplemented with 10 μg/ml penetratin, fSLPI, or SLPI11-25 and added to the wells containing the neurons. The slides were then covered and incubated at 4° C. for 4 hours. Cells were then fixed and immunostained for βIII tubulin as described."}, "[5]": {"system": "Chinese hamster ovary (CHO) cells", "experiment": "Presence in the underlying CHO cell monolayer at 4° C.", "type": "cell-based", "settings": "10 μg/ml, 4 hours", "experimental": "as §1"}, "[6]": {"experiment": "Blood brain barrier crossing after intraperitoneal injection", "type": "in vivo, 129SI/SV1MJ mice", "settings": "mice, intraperitoneal 100 μg", "experimental": "To assess whether SLPI crosses the blood brain barrier, adult 129SI/SV1MJ mice received intraperitoneal injections of 100 μg fSLPI in sterile PBS or unconjugated fluorescein (500 μl total volume). Mice were sacrificed by transcardial perfusion with 4% paraformaldehyde after 4 and 8 hours. The brains and cervical spinal cords were dissected out and prepared for sectioning as described. Tissues were sectioned coronally at 30 μm and slides were coverslipped as described. […] This may be an inherent property of SLPI or may be secondary to its observed efficient cellular internalization which may in turn prevent SLPI from ever reaching the CNS in high enough concentrations to be detected.\nTo assess whether SLPI11-25 crosses the blood brain barrier, 129SI/SV1MJ mice received intraperitoneal injections of 100 μg SLPI11-25 or penetratin in sterile PBS ([…]). Mice were sacrificed after 1 and 4 hours, and the brains and cervical spinal cords were prepared for sectioning as described. Tissues were sectioned coronally at 30 μm and slides were coverslipped as described. […] This may be an inherent property of SLPI-derived PTDs, or may be secondary to its observed efficient cellular internalization, which may in turn prevent the SLPI-derived PTD from ever reaching the CNS in high enough concentrations to be detected."}, "cerebellar neurons": {"system": "cerebellar neurons", "experiment": "Western blot of cytoplasmic and nuclear fractions of treated cerebellar neurons", "type": "cell-based, rats", "settings": "0, 1, 5, and 10 μg/ml, 1 hour, 37° C.", "experimental": "FIG. 1: Western blot analysis of cytoplasmic and nuclear fractions from cerebellar neurons treated with 0, 1, 5, and 10 μg/ml SLPI for 1 hour. Higher levels of SLPI are observed in both cytoplasmic and nuclear fractions with increasing concentrations of SLPI. Phospho-CREB is used as a nuclear marker and actin is used as a loading control. See Example 1.\nTo characterize the transduction abilities of the SLPI protein, cerebellar neurons were isolated from postnatal day 6 (P6) rats (Mukhopadhyay et al., Neuron 13:757-767 (1994); DeBellard et al., Mol. Cell. Neurosci. 7:89-101 (1996); Cai et al., Neuron 22:89-101 (1999)) and treated with 0, 1, 5, and 10 μg/ml recombinant human SLPI (R&D Systems) in SATO culture medium (Doherty et al., Neuron 5:209-219 (1990); Nature 343:464-466 (1990)). Cells were incubated at 37° C. for 1 hour, and cytoplasmic and nuclear fractions were prepared using NE-PER cytoplasmic and nuclear extraction reagents (Pierce). Protein samples were subjected to SDS-PAGE using 15% SDS polyacrylamide gels and transferred to nitrocellulose. SLPI was detected using a polyclonal antibody to recombinant human SLPI (R&D Systems). […] The nuclear localization of SLPI was then confirmed by reprobing the membrane for a well-known nuclear marker: phosphorylated cyclic AMP response element binding protein (pCREB; Cell Signaling). […]"}}, "note": "Ends that are not written are not given here.", "data": [{"molecule": "O=C1OC2(c3ccc(O)cc3Oc3cc(O)ccc32)c2ccccc21", "note": "[fluorescein]", "values": [{"measurement": "presence in the retinal ganglion cell layer of the retina", "setting": "[1]", "value": "no signal is observed"}, {"measurement": "presence in the retinal ganglion cell layer of the retina", "setting": "[2]", "value": "no signal was observed"}]}, {"molecule": "SLPI11-25: SLPI-derived PTD, amino acids 11-25 of human SLPI (PPKKSAQCLRYKKPE, SEQ ID NO: 2), labeled with fluorescein at the C-terminus (PPKKSAQCLRYKKPE-fluorescein; listed as Homo sapiens)", "values": [{"measurement": "internalization / presence in nuclei of DRG neurons", "setting": "DRG neurons [3]", "value": "present in the nuclei of DRG neurons"}, {"measurement": "nuclear localization at the restrictive temperature", "setting": "DRG neurons [4]", "value": "still occurred at the restrictive temperature"}, {"measurement": "present in the underlying CHO cell monolayer", "setting": "[5]", "value": "not"}, {"measurement": "observed in the brain and spinal cord", "setting": "[6]; 1 and 4 hours", "value": "No SLPI11-25 was observed in the brain and spinal cord at either time point"}]}, {"molecule": "SLPI: recombinant human secretory leukocyte protease inhibitor (R&D Systems), 107 amino acid polypeptide, SEQ ID NO: 1 (protein, listed as Homo sapiens) SGKSFKAGVCPPKKSAQCLRYKKPECQSDWQCPGKKRCCPDTCGIKCLDPVDTPNPTRRKPGKCPVTYGQCLMLNPPNFCEMDGQCKRDLKCCMGMCGKSCVSPVKA", "values": [{"measurement": "SLPI in cytoplasmic and nuclear fractions", "setting": "cerebellar neurons", "value": "present in increasing amounts in both the cytoplasmic and nuclear fractions"}]}, {"molecule": "fSLPI: SLPI labeled with fluorescein using a Fluorescein-EX protein labeling kit (protein, UniProt P03973 26-132, looked up, fluorescein label, SLPI labeled with fluorescein using a Fluorescein-EX protein labeling kit) Antileukoproteinase: SGKSFKAGVCPPKKSAQCLRYKKPECQSDWQCPGKKRCCPDTCGIKCLDPVDTPNPTRRKPGKCPVTYGQCLMLNPPNFCEMDGQCKRDLKCCMGMCGKSCVSPVKA", "values": [{"measurement": "internalization into nuclei", "setting": "DRG neurons [3]; P5 DRG neurons, 1 μg/ml or 10 μg/ml, 5 minutes", "value": "internalized into nuclei within 5 minutes in a dose-dependent manner"}, {"measurement": "internalization / presence in nuclei of neurons", "setting": "DRG neurons [3]; P5 DRG neurons, 10 μg/ml, 1 hour", "value": "clearly present in the nuclei of neurons"}, {"measurement": "internalization / presence in nuclei of DRG neurons", "setting": "DRG neurons [3]", "value": "present in the nuclei of DRG neurons"}, {"measurement": "nuclear localization at the restrictive temperature", "setting": "DRG neurons [4]", "value": "still occurred at the restrictive temperature"}, {"measurement": "present in the underlying CHO cell monolayer", "setting": "[5]", "value": "not"}, {"measurement": "observed in the brain and spinal cord", "setting": "[6]; 4 and 8 hours", "value": "No fSLPI was observed in the brain and spinal cord at either time point"}]}]}
